# Source: patent US20240376185A1 (SMIVET B V, published 2024)
# T1: chicken ovalbumin (chicken, UniProt P01012 2-386)
# T1 construct: mature; also called chicken Alb
# T1 sequence (looked up): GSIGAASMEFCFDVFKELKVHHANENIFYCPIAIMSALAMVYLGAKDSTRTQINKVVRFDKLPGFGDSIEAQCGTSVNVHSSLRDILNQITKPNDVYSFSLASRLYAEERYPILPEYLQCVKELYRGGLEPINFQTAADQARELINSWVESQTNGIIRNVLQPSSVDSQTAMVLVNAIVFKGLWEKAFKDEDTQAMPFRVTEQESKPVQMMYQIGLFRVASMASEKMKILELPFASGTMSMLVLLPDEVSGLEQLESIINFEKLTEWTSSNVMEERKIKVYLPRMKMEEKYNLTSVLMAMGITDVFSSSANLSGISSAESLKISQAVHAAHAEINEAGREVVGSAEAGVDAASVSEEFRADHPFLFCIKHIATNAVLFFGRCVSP
# Legend:
# dog serum albumin [1] = target: T2, dog serum albumin (dog, UniProt P49822 25-608); experiment: ELISA, E. coli supernatant
# T2 construct: mature; also called dog Alb; Canine albumin
# T2 sequence (P49822 25-608): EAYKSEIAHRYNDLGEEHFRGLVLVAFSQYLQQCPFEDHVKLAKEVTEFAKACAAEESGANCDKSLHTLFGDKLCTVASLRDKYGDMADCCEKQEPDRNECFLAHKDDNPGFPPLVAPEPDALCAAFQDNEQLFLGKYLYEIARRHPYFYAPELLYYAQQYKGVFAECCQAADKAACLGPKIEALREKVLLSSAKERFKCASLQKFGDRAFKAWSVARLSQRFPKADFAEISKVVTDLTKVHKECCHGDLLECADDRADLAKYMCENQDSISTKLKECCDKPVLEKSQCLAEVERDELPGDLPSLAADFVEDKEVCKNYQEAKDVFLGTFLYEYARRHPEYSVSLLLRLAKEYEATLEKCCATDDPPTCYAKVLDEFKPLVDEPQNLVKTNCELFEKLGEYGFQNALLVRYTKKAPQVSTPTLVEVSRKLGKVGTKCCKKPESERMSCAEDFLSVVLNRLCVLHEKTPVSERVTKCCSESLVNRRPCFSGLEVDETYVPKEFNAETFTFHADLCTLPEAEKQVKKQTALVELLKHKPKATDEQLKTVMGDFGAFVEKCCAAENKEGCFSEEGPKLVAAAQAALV
# human serum albumin [2] = target: T3, human serum albumin (human, UniProt P02768 25-609); experiment: ELISA, E. coli supernatant
# T3 construct: mature; also called human Alb
# horse serum albumin = target: T4, horse serum albumin (horse, UniProt P35747 25-607); experiment: ELISA, coated albumin, E. coli supernatant; further: test concentration or dose not given here
# T4 construct: mature; also called horse Alb; Equine albumin
# T4 sequence (P35747 25-607): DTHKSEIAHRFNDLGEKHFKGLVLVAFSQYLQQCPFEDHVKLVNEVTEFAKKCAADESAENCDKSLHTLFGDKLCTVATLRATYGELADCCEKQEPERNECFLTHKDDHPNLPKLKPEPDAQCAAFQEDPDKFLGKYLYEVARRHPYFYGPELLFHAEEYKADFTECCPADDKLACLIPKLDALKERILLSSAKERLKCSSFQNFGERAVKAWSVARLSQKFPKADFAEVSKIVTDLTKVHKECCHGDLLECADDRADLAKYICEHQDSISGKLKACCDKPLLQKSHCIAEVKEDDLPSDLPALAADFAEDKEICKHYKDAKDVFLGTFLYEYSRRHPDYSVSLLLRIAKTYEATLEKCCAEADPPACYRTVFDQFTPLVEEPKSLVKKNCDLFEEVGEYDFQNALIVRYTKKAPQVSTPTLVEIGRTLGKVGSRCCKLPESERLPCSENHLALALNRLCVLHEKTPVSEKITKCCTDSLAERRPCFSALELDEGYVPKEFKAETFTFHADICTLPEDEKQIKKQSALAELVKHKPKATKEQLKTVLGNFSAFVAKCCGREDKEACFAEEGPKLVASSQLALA
# dog serum albumin [3] = target: T2, dog serum albumin; experiment: ELISA, coated albumin, E. coli supernatant; further: test concentration or dose not given here
# human serum albumin [4] = target: T3, human serum albumin; experiment: ELISA, coated albumin, E. coli supernatant; further: test concentration or dose not given here
# human serum albumin [5] = target: T3, human serum albumin; experiment: ELISA, coated albumin
# sheep serum albumin = target: T5, sheep serum albumin (sheep, UniProt P14639 25-607); experiment: ELISA, coated albumin
# T5 construct: mature; also called sheep Alb
# T5 sequence (P14639 25-607): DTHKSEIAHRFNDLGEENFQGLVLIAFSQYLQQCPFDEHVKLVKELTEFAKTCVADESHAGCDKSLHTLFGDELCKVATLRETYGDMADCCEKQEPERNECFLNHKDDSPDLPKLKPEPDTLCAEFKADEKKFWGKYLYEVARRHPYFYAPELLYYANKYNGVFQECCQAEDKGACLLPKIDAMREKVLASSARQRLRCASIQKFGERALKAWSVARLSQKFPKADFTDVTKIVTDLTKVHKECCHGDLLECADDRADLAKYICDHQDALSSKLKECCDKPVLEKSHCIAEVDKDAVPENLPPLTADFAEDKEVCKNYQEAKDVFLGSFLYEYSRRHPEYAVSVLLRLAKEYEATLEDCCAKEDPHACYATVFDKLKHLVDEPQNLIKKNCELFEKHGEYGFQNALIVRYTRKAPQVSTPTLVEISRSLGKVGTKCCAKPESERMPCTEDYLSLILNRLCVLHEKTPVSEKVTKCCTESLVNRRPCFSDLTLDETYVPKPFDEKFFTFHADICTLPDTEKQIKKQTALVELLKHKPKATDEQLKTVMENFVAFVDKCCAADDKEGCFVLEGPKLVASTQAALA
# bovine serum albumin = target: T6, bovine serum albumin (bovine, UniProt P02769 25-607); experiment: ELISA, coated albumin
# T6 construct: mature; also called bovine Alb
# T6 sequence (P02769 25-607): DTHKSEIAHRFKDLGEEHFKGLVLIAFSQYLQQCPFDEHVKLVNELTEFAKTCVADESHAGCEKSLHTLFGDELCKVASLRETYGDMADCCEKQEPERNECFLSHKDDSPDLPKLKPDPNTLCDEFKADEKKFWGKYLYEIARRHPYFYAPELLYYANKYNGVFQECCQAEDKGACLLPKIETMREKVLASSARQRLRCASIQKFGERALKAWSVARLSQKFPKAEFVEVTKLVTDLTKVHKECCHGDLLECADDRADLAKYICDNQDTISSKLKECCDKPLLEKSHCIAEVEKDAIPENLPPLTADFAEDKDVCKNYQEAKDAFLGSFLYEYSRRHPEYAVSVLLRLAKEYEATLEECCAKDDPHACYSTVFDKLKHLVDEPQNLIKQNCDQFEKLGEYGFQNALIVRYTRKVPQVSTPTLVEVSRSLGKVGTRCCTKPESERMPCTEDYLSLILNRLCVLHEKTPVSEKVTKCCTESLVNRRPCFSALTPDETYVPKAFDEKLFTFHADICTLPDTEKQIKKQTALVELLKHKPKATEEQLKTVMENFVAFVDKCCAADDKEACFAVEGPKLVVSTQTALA
# chicken ovalbumin = target: T1, chicken ovalbumin; experiment: ELISA, coated albumin
Binder,binding result (dog serum albumin [1]),binding result (human serum albumin [2]),absorbance at 450 nm (horse serum albumin) [A450],absorbance at 450 nm (dog serum albumin [3]) [A450],absorbance at 450 nm (human serum albumin [4]) [A450],binding result (human serum albumin [5]),binding result (sheep serum albumin),binding result (bovine serum albumin),binding result (chicken ovalbumin)
"SVA07 (VHH, not shown: large carriers) VHH: QVQLQQSGGGLVQAGDSLRLSCAASGRAFNYYTMGWFRQAPGKEREFVAKIYWDGGSTIYADSVKGRFTISIDNAKNTVYLQMNSLKPEDTAVYYCAADPSFYPFRPKYWGQGTQVTVSS",no binding,no binding,1.46,0.059,0.062,,,,
"SVA06L (VHH, yeast-produced) VHH: QVQLQESGGRLVQAEDSLRLSCAASGRTFVSYDMGWFRQAPGKEREFVAAINWRGYTTDYVDSVKGRFFISRDIAKSTVYLQMNNLKPEDTAVYYCAARQMSGSSRYSPPGRVGYDFWGQGTQVTVSS",,,,,,no binding (tested: 1 µg/ml),no binding (tested: 1 µg/ml),no binding (tested: 1 µg/ml),no binding (tested: 1 µg/ml)
